Common to all, as to assay: potentiometry
Common to all, as to conditions: 298 K; 0.1 M NaClO4; metal-free peptide, random coil

The target in data set [1] is Glu7 (position 7, …).
In data set [2] the target is Glu7 (position 7, …). The source holds these as a separate data set.
Data set [3] concerns the target Glu7 (position 7, …). This is another data set of the same source.
For data set [4], the target named is Glu7 (position 7, …). The source holds these as a separate data set.

For orientation: pKa means the negative logarithm of the acid dissociation constant. Higher therefore signals a weaker acid or stronger base.

B1: GroEL1 C-terminal tail peptide L4 (H11Q mutant of L2) (Mycobacterium tuberculosis; H11Q) (peptide)
chain: DKPAKAEDHDQHHGHAH
In data set [1], B1 displayed a pKa of 4.71.

B2: GroEL1 C-terminal tail peptide L6 (H13Q mutant of L2) (Mycobacterium tuberculosis; H13Q) (peptide)
chain: DKPAKAEDHDHHQGHAH
Take B2: the pKa in data set [2] is 4.96.

B3: GroEL1 C-terminal tail peptide L3 (H9Q mutant of L2) (Mycobacterium tuberculosis; H9Q) (peptide)
chain: DKPAKAEDQDHHHGHAH
As for B3, the pKa in data set [3] was found to be 4.74.

B4: GroEL1 C-terminal tail peptide L7 (H15Q mutant of L2) (Mycobacterium tuberculosis; H15Q) (peptide)
chain: DKPAKAEDHDHHHGQAH
The protein B4 gave a pKa in data set [2] of 4.45.

B5: GroEL1 C-terminal tail peptide L8 (H17Q mutant of L2) (Mycobacterium tuberculosis; H17Q) (peptide)
chain: DKPAKAEDHDHHHGHAQ
Turning to B5, in data set [2], the pKa was determined as 4.44. The pKa values of the last two proteins are within 0.2 log units of each other.

B6: GroEL1 C-terminal tail peptide L5 (H12Q mutant of L2) (Mycobacterium tuberculosis; H12Q) (peptide)
chain: DKPAKAEDHDHQHGHAH
As for B6, the pKa in data set [4] came to 4.36.

(Values after publication PMC10170517.)
